# B1: full-length Del-1: developmentally regulated endothelial cell locus-1 protein, extracellular matrix protein, amino acid sequence SEQ ID NO: 5 (protein, listed as Mus musculus)
# chain: MKHLVAAWLLVGLSLGVPQFGKGDICNPNPCENGGICLSGLADDSFSCECPEGFAGPNCSSVVEVASDEEKPTSAGPCIPNPCHNGGTCEISEAYRGDTFIGYVCKCPRGFNGIHCQHNINECEAEPCRNGGICTDLVANYSCECPGEFMGRNCQYKCSGPLGIEGGIISNQQITASSTHRALFGLRKWYPYYARLNKKGLINAWTAAENDRWPWIQINLQRKMRVTGVITQGAKRIGSPEYIKSYKIAYSNDGKTWAMYKVKGTNEEMVFRGNVDNNTPYANSFTPPIKAQYVRLYPQICRRHCTLRMELLGCELSGCSEPLGMKSGHIQDYQITASSVFRTLNMDMFTWEPRKARLDKQGKVNAWTSGHNDQSQWLQVDLLVPTKVTGIITQGAKDFGHVQFVGSYKLAYSNDGEHWMVHQDEKQRKDKVFQGNFDNDTHRKNVIDPPIYARFIRILPWSWYGRITLRSELLGCAEEE
# Key:
# Assay type in all cases: cell-based
# Cos cells [1] = test: Del-1 gene transfer into cultured Cos cells, H33342 nuclear staining, phase contrast and fluorescent microscopy (Example 1); conditions: 24 hours after gene transfer of cDNA in pcDNA3
# Experimental: cDNA for full-length Del-1 (SEQ ID NO: 4) was integrated into an expression vector, pcDNA3 (Invitrogen), and then introduced into cultured Cos cells. As a control, pcDNA3 free from the cDNA for full-length Del-1 was used. At 24 hours after gene transfer, the cells were stained with H33342 (Hoechst) for cell nuclear staining and observed under a phase contrast microscope (transmission image) and a fluorescent microscope (H33342).
# Cos cells [2] = test: Del-1 gene transfer into cultured Cos cells, chromosomal DNA electrophoresis and silver staining (Example 2); conditions: Cos cells forced to express Del-1 (pcDNA3)
# Text: cDNA for full-length Del-1 (SEQ ID NO: 4) was integrated into an expression vector, pcDNA3 (Invitrogen), and then introduced into cultured Cos cells. As a control, pcDNA3 free from the cDNA for full-length Del-1 was used. For normalization of the gene transfer rate, DNA carrying the LacZ gene was also introduced simultaneously. The results obtained are shown in FIG. 2 (left and right panels).
# Left panel: Chromosomal DNAs were taken from the cells and electrophoresed on a polyacrylamide gel, followed by silver staining.
# Cos cells [3] = test: Del-1 gene transfer into cultured Cos cells, H33342 and C3-annexin V staining (Example 3); conditions: 24 hours after gene transfer
# Experimental: cDNA for full-length Del-1 (SEQ ID NO: 4) was integrated into an expression vector and then introduced into cultured Cos cells. At 24 hours after gene transfer, the cells were stained with H33342 and with C3-annexin V (annexin V conjugated with the fluorescent dye C3) and then observed under a fluorescent microscope.
# It should be noted that annexin V is capable of binding to phosphatidylserine, a component of cell membranes, while phosphatidylserine is known to leak (to be localized) outside of the cell membrane when the cells undergo apoptosis.
# Cos cells [4] = test: eGFP-Del-1 expression vector in cultured Cos cells, H33342 staining (Example 4); conditions: expressed as eGFP-Del-1 fusion protein, 24 hours after gene transfer
# Experimental: An expression vector designed to carry cDNA encoding eGFP-Del-1 (a fusion protein between eGFP and full-length Del-1) was introduced into cultured Cos cells. At 24 hours after gene transfer, the cells were fixed and stained with H33342.
# This would mean that Del-1 secreted from the cells receiving Del-1 gene transfer would also act on their adjacent cells to thereby induce apoptosis in these cells.
# [5] = test system: CRL cells (human melanoma cells); test: AP-Del-1 conditioned medium added to cells, H33342 and C3-annexin V staining (Example 5); conditions: conditioned medium of Cos cells with AP fusion protein, 24 hours after addition
# Experimental: (§1) cDNA for full-length Del-1 (SEQ ID NO: 4) was integrated into an alkaline phosphatase (AP) expression vector (APtag4) and then introduced into cultured Cos cells. As a control, an AP expression vector free from the cDNA for full-length Del-1 was used. The resulting culture supernatant was measured for AP activity, normalized for AP fusion protein concentration and then added to a culture of CRL cells (human melanoma cells) or P5 cells (vascular endothelial cell line) (instead of using direct gene transfer, Cos cells were allowed to produce a recombinant protein and the resulting conditioned medium was used, because CRL and P5 were low in the efficiency of gene transfer). At 24 hours after addition, the cells were stained with H33342 and with C3-annexin V for observation.
# [6] = test system: P5 cells (vascular endothelial cell line); test: as above; conditions: conditioned medium of Cos cells with AP fusion protein, 24 hours after addition
# Experimental: as §1
# [7] = test system: CRL cells (human melanoma cells); test: AP-Del-1 conditioned medium added to cells, chromosomal DNA electrophoresis and silver staining (Example 6); conditions: 24 hours after addition
# Experimental: as §1, with “AP” for “alkaline phosphatase (AP)”, “addition, chromosomal DNAs were taken from” for “addition,”, “cells” for “cells were stained with H33342”, “electrophoresed on a polyacrylamide gel, followed by silver staining.” for “with C3-annexin V for observation.”
# [8] = test system: P5 cells (vascular endothelial cell line); test: as above; conditions: 24 hours after addition
# Experimental: as §1, with “AP” for “alkaline phosphatase (AP)”, “addition, chromosomal DNAs were taken from” for “addition,”, “cells” for “cells were stained with H33342”, “electrophoresed on a polyacrylamide gel, followed by silver staining.” for “with C3-annexin V for observation.”
# Cos cells [9] = test: LDH activity in supernatant of Cos cells transformed with cDNA for Del-1 or its parts (Example 7); conditions: APtag4 vector, medium replaced 24 hours after gene transfer, measured after further one hour
# Text: cDNA for full-length Del-1 (SEQ ID NO: 4) was integrated into an AP expression vector (APtag4) and then introduced into cultured Cos cells. Likewise, cDNA for a part of Del-1 was also integrated into APtag4 and then introduced into cultured Cos cells. As a control, an AP expression vector free from the above cDNA for full-length Del-1 or a part thereof was used. It should be noted that the members each used as a part of Del-1 were EGF-like domains in the full-length Del-1 protein, i.e., EGF1 (E1; cDNA: SEQ ID NO: 26, amino acid sequence: SEQ ID NO: 27), EGF2 (E2; cDNA: SEQ ID NO: 28, amino acid sequence: SEQ ID NO: 29) and EGF3 (E3; cDNA: SEQ ID NO: 6, amino acid sequence: SEQ ID NO: 7), a fusion protein between discoidin I-like domains, i.e., Discoidin1 and Discoidin2 (C1C2; cDNA: SEQ ID NO: 30, amino acid sequence: SEQ ID NO: 31), an amino acid substitution (D136E) mutant of the above full-length Del-1 (Del1m; cDNA: SEQ ID NO: 32, amino acid sequence: SEQ ID NO: 33), as well as an amino acid substitution (D136E) mutant of E3, i.e., E3 D136E (E3m; cDNA: SEQ ID NO: 34, amino acid sequence: SEQ ID NO: 35). […] At 24 hours after gene transfer, the medium in each case was replaced with fresh culture medium and, after further one hour, the supernatant was measured for LDH activity. A cell lysate was prepared for each case and measured for LacZ activity. […]
molecule,measurement,setting,value
B1,chromosome aggregation (H33342 nuclear staining),Cos cells [1],chromosomes were aggregated
same,DNA ladder pattern indicative of apoptosis,Cos cells [2],ladder pattern indicative of apoptosis was observed
same,apoptosis by H33342 and C3-annexin V staining,Cos cells [3],these cells underwent apoptosis
same,"apoptosis (chromosomal aggregation, H33342) in cells expressing the fusion protein",Cos cells [4],found to undergo apoptosis
same,apoptosis by H33342 and C3-annexin V staining,[5],these cells underwent apoptosis
same,apoptosis by H33342 and C3-annexin V staining,[6],these cells underwent apoptosis
same,DNA ladder pattern indicative of apoptosis,[7],ladder pattern indicative of apoptosis was observed
same,DNA ladder pattern indicative of apoptosis,[8],ladder pattern indicative of apoptosis was observed
same,"increase in LDH activity of supernatant, normalized by LacZ activity",Cos cells [9],increase in LDH activity
